Data published in patent publication US20020064869A1 (published 2002).

How the values were obtained:
[1] = biological target: Fas on TIL1200 cells (human) (UniProt P25445); assay: cell-based or functional assay
[2] = biological target: T1, TR2 on the surface of human cells (MDA-MB-231, HT-29, PBL T cells) (human, UniProt Q92956 39-283); assay: cell-based or functional assay
T1 sequence (looked up): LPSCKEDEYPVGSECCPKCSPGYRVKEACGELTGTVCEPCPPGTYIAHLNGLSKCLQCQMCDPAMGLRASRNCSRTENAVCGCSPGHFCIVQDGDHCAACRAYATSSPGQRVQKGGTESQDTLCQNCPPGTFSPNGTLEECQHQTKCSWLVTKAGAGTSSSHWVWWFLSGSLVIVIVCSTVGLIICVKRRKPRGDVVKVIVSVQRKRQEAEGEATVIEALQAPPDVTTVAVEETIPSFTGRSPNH

[3] = biological target: LTβR on the surface of human cancer cells (MDA-MB-231, HT-29) (human, UniProt P36941 31-435); assay: cell-based or functional assay
Sequence of LTβR on the surface of human cancer cells (MDA-MB-231, HT-29) (P36941 31-435): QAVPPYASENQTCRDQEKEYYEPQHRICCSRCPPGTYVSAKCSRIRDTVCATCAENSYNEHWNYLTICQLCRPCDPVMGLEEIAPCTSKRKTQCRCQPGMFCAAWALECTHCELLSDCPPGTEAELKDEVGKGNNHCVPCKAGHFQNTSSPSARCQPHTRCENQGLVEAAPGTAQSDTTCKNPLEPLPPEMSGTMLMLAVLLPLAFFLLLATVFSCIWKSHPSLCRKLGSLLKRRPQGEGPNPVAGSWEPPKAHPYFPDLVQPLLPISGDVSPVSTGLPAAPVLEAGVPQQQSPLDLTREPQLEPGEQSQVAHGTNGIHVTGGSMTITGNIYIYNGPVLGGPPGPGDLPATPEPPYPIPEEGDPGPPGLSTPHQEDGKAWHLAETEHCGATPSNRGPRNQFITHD

[4] = biological target: T2, human LTβR-Fc fusion protein (extracellular domain of lymphotoxin-β receptor fused to IgG1 Fc) (human, UniProt P36941 31-227); assay: BIAcore, LTβR-Fc immobilized, CHO conditioned media
T2 construct: extracellular domain; Made in baculovirus-infected Sf21 cells; also called sLTβR-Fc; lymphotoxin-β receptor-Fc fusion protein; not shown: IgG1 Fc from vector pUC19-IgG1-Fc; hybridomas were counter-screened on human IgG1
T2 sequence (P36941 31-227 limits assumed): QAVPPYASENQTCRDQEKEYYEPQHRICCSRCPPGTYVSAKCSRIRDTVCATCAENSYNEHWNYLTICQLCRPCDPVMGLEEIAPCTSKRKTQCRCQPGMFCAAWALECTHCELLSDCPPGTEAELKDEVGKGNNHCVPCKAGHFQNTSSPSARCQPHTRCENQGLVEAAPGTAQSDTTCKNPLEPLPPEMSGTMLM

Sequence of Fas on TIL1200 cells (human) (P25445 26-335): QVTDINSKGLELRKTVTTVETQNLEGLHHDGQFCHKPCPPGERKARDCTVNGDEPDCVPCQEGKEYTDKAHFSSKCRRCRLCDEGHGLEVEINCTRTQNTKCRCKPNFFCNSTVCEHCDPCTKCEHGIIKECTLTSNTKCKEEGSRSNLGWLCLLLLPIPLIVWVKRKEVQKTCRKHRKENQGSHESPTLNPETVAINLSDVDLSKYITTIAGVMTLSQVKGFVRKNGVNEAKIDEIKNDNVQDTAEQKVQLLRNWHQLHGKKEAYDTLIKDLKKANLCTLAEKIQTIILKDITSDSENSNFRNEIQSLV

“apoptosis inducing anti-Fas Mab CH-11 (antibody)” was tested, and the apoptosis of TIL1200 cells [1] was 90%.

B1: recombinant soluble form of AIM II protein (sAIM II), Flag-tagged, amino acids 74-240 of AIM II (ligand, not shown: small tags and cut ends)
chain: DGPAGSWEQLIQERRSHEVNPAAHLTGANSSLTGSGGPLLWETQLGLAFLRGLSYHDGALVVTKAGYYYIYSKVQLGGVGCPLGLASTITHGLYKRTPRYPEELELLVSQQSPCGRATSSSRVWWDSSFLGGVVHLEAGEEVVVRVLDERLVRLRDGTRSYFGAFMV
With B1 the “IC50 of cytotoxic effect on HT-29 cells in the presence of 10 u/ml IFNγ” value [2] was less than 1 ng/mL and the “IC50 of cytotoxic effect on HT-29 cells in the presence of 10 u/ml IFNγ” value [3] was less than 1 ng/mL.

B2: ck-beta8/AIM II fusion protein, extracellular region of AIM II (amino acids 60-240), from CHO 11 conditioned media (ligand)
chain: SQAGSQLHWRLGEMVTRLPDGPAGSWEQLIQERRSHEVNPAAHLTGANSSLTGSGGPLLWETQLGLAFLRGLSYHDGALVVTKAGYYYIYSKVQLGGVGCPLGLASTITHGLYKRTPRYPEELELLVSQQSPCGRATSSSRVWWDSSFLGGVVHLEAGEEVVVRVLDERLVRLRDGTRSYFGAFMV
notes: Two N-termini were found (40% each): SQAGS... and GSQLH; the second species lacks the first three residues SQA; also called CHO-11 AIM II; ck-beta-8-AIM2
B2: binds [4].
